Entries after “also recorded” stand apart in the source; their conditions may differ. Like-named read-outs stand apart in the source and are kept apart here. One block for each substance: values may come before it.
What was measured:
[1] = Production of antibodies against long-acting insulinotropic peptide in normal rats, 26-week administration (bridging ELISA); type: in vivo, Sprague Dawley rat; conditions: for % positive / Positive (animals with antibody) / Time point (of positive antibody finding): SD rat
Experimental: The blood was collected before and during administration, at the 13rd, 19th and 26th week, and at the end of the recovery period, the serum was separated from this. It was determined on whether to produce the antibodies against the insulinotropic peptide.
(§1) In order to detect whether the conjugate of Example 3 has produced an anti-drug antibody (ADA) in the body of rat or Cynomolgus monkey, the conjugate was examined by the bridging ELISA method. The biotinylated conjugate of Example 3 was bound to the 96-well microplate in which streptavidin was coupled to the bottom thereof, and washed with water. Digoxigenin(DIG)-labeled conjugate of Example 3 (hereinafter, HM11260C) was added along with the serum samples of rat or monkey to react and then washed with water. Then, the horseradish peroxidase-coupled anti-DIG antibody (anti-DIG-POD antibody) was added and developed by TMB substrate (3,3′,5,5′-tetramethylbenzidine substrate).
(§2) Measurement sensitivity in the rat serum was 3.1 ng/ml, and the measurement sensitivity in monkey serum was 12.5 ng/ml. To evaluate the neutralizing capacity against HM11260C of detected anti HM11260C antibody, serum samples and HM11260C were added to the human […] cell line (GLP-1R/CHO) and then the inhibition rate of cAMP-induction was measured.

[2] = test system: human GLP-1 overexpressed cell line (GLP-1R/CHO); experiment: Neutralizing capacity of detected anti-HM11260C antibody: inhibition of cAMP induction; type: cell-based; conditions: for Neutralizing Ab: SD rat serum
Experimental: as §2

[3] = Production of antibodies in Cynomolgus monkey, 26-week administration (bridging ELISA); type: in vivo
Experimental: The blood was taken before and during administration, at the 12th, 19th and 26th week, and at the end of the recovery period, the serum was separated from this. It was determined whether to produce the antibodies against the insulinotropic peptide.
as §1, §2

[4] = test system: peripheral blood mononuclear cells (PBMC) of the donor, CD8+ T cells removed
[5] = clinical, literature; cited from earlier work
[6] = test system: peripheral blood mononuclear cells (PBMC) of the donor, CD8+ T cells removed; remark: listed apart in the source
[7] = Total of all groups incl. vehicle, n=200
[8] = Total of all groups incl. vehicle, n=40

Substance: Imidazo-Acetyl Exendin-4 (Lys27)-Immunoglobulin Fc Conjugate [HM11260C]
- % positive ([1]; 26 weeks, high dose, n=60): 1.6%
- % positive ([1]; 26 weeks, low dose, n=40): 2.5%
- % positive ([1]; 26 weeks, mid dose, n=40): 0%
- Positive (animals with antibody) ([1]; s.c. once a week 26 weeks + 4 weeks recovery, high dose, n=60): 1
- Positive (animals with antibody) ([1]; s.c. once a week 26 weeks + 4 weeks recovery, low dose, n=40): 1
- Positive (animals with antibody) ([1]; s.c. once a week 26 weeks + 4 weeks recovery, mid dose, n=40): 0
- % positive [1, 7]: 1.0%
- Positive (animals with antibody) [1, 7]: 2
- Time point (of positive antibody finding) ([1]; high dose): recovery
- Time point (of positive antibody finding) ([1]; low dose): Week 13
- subjects in which antibodies were detected ([1]; among 160 rats administered with the drug): two
- Neutralizing Ab ([2]; Total of all groups): 0
- Neutralizing Ab ([2]; high dose): 0
- Neutralizing Ab ([2]; low dose): 0
- Neutralizing Ab ([2]; mid dose): 0
- neutralizing ability of the detected antibodies ([2]; sera of the two antibody-positive rats): not neutralizing antibodies; also recorded: no neutralizing ability
- % positive [3, 8]: 0%
- Positive/total [3, 8]: 0
- production of antibodies ([3]; all subjects): no production of the antibodies in all subjects was detected
- % positive ([3]; high dose, n=12): 0%
- % positive ([3]; low dose, n=8): 0%
- % positive ([3]; mid dose, n=8): 0%
- Positive/total ([3]; s.c. once a week 26 weeks + 4 weeks recovery, high dose, n=12): 0
- Positive/total ([3]; s.c. once a week 26 weeks + 4 weeks recovery, low dose, n=8): 0
- Positive/total ([3]; s.c. once a week 26 weeks + 4 weeks recovery, mid dose, n=8): 0

Substance: Keyhole Limpet Haemocyanin [KLH, reference compound]
- Proliferation and ELISpot % [4]: 80%

Substance: Lixisenatide
- patients who produced an antibody [5]: 60-71%

- Frequency of Response (%) [4]: 12%
- Frequency of Response (%) [6]: 12%
Substance: imidazoacetyl-exendin-4 [CA Exendin-4]
- Proliferation and ELISpot % [4]: 10%

Source: patent publication US20220118103A1, “METHOD FOR DECREASING IMMUNOGENICITY OF PROTEIN AND PEPTIDE” (HANMI PHARM. CO., LTD., priority 2014, published 2022)
